Measured values from US20040058870A1 (Bayer, published 2004).
Where two headings read alike, the source gives them in different places. Ends that are not written are not given here.

Experiments:
Assay in all cases: cell-based or functional assay
VPAC2 receptor [1] = molecular target: T1, VPAC2 receptor (human, UniProt P41587 24-438)
T1 sequence (looked up): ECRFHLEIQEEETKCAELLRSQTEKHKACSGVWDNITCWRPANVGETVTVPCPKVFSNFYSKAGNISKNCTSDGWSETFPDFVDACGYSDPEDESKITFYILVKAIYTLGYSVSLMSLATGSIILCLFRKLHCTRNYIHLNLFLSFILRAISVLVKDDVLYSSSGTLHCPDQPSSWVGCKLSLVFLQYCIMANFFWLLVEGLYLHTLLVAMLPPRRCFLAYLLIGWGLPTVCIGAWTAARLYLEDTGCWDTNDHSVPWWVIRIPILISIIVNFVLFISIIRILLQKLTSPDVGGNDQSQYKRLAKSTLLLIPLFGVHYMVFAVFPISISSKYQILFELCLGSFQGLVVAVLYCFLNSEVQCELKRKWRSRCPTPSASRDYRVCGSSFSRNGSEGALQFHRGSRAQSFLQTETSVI

VPAC2 receptor [2] = molecular target: T1, VPAC2 receptor; remark: listed apart in the source
VPAC2 receptor [3] = molecular target: T1, VPAC2 receptor; remark: listed apart in the source
VPAC1 receptor = molecular target: T2, VPAC1 receptor (UniProt P32241 31-457, limits assumed)
T2 sequence (looked up): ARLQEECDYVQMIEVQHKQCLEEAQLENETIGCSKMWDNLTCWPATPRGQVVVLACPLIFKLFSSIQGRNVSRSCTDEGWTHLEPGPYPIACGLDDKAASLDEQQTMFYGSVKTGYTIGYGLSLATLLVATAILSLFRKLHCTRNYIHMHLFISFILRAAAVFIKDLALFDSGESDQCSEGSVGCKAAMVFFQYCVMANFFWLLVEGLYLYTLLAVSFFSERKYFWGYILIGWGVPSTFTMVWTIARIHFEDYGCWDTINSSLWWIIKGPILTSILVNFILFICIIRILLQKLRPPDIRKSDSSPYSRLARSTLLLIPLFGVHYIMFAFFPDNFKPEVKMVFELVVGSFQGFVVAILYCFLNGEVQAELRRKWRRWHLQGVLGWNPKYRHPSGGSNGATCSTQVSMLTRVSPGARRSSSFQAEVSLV

PACAP-27 (from UniProt P18509 132-158) (peptide)
EC50 (nM), cAMP SPA (VPAC2 receptor [1]): 0.09 nM

HTEAVFTDQYTRLRKQVAAKKYLQSIKQKRY [P7]
maximal level of receptor activation relative to PACAP-27, cAMP SPA (VPAC2 receptor [2]): 100%
EC50 (nM), cAMP SPA (VPAC2 receptor [3]): 7.81 nM
EC50 (nM), cAMP SPA (VPAC1 receptor): > 1000 nM

HSDAVFTDQYTRLRKQVAAKKYLQSIKQKRY [P5]
EC50 (nM), cAMP SPA (VPAC1 receptor): 232 nM

HSDAVFTDQYTRLRKQVAAKKYLQSIKQKRYC (ends and bridges not checked) [P12]
EC50 (nM), cAMP SPA (VPAC1 receptor): > 1000 nM

HSDAVFTDQYTRLRKQVAAKKYLQSIKQKRYC (22 kD PEG on the C-terminal Cys via maleimide (thioether) linkage) [P12 plus 22 kD PEG]
EC50 (nM), cAMP SPA (VPAC1 receptor): > 1000 nM

HSDAVFTDQYTRLRKQVAAKKYLQSIKQKRYC (43 kD PEG on the C-terminal Cys via maleimide (thioether) linkage) [P12 plus 43 kD PEG]
EC50 (nM), cAMP SPA (VPAC1 receptor): > 1000 nM

Ac-HTDAVFTDQYTRLRKQVAAKKYLQSIKQKRY (ends and bridges not checked) [P8]
maximal level of receptor activation relative to PACAP-27, cAMP SPA (VPAC2 receptor [2]): 100%
EC50 (nM), cAMP SPA (VPAC2 receptor [3]): 0.19 nM
EC50 (nM), cAMP SPA (VPAC1 receptor): 130 nM
